This is an account of results in PMC2527485 (Journal of molecular biology, 2008).

This data set concerns the molecule itself. Description: SEC + crystal structure.

B1: E,Z-farnesyl diphosphate synthase (Rv1086) (enzyme)
chain: MEIIPPRLKEPLYRLYELRLRQGLAASKSDLPRHIAVLCDGNRRWARSAGYDDVSYGYRMGAAKIAEMLRWCHEAGIELATVYLLSTENLQRDPDELAALIEIITDVVEEICAPANHWSVRTVGDLGLIGEEPARRLRGAVESTPEVASFHVNVAVGYGGRREIVDAVRALLSKELANGATAEELVDAVTVEGISENLYTSGQPDPDLVIRTSGEQRLSGFLLWQSAYSEMWFTEAHWPAFRHVDFLRALRDYSARHRSYGR
For B1, the “stoichiometry N” value is 2.
